Source: the DeepSol protein solubility set

Test: soluble on expression in E. coli; label from the status in PepcDB or PDB records

Row | Sequence | soluble on expression in E. coli
1 | MTDIGAPVTVQVAVDPPYPVVIGTGLLDELEDLLADRHKVAVVHQPGLAETAEEIRKRLAGKGVDAHRIEIPDAEAGKDLPVVGFIWEVLGRIGIGRKDALVSLGGGAATDVAGFAAATWLRGVSIVHLPTTLLGMVDAAVGGKTGINTDAGKNLVGAFHQPLAVLVDLATLQTLPRDEMICGMAEVVKAGFIADPVILDLIEADPQAALDPAGDVLPELIRRAITVKAEVVAADEKESELREILNYGHTLGHAIERRERYRWRHGAAVSVGLVFAAELARLAGRLDDATAQRHRTILSSLGLPVSYDPDALPQLLEIMAGDKKTRAGVLRFVVLDGLAKPGRMVGPDPGLLVTAYAGVCAP | not soluble
2 | SMQEKYRLVVVGGGGVGKSALTIQFIQSYFVTDYDPTIEDSYTKQCVIDDRAARLDILDTAGQEEFGAMREQYMRTGEGFLLVFSVTDRGSFEEIYKFQRQILRVKDRDEFPMILIGNKADLDHQRQVTQEEGQQLARQLKVTYMEASAKIRMNVDQAFHELVRVIRKFQEQ | soluble
3 | MSRRVEFDLSTEDHSDRRRTNTFSSDEDGVPNEVADYLVYFSRMVDEQNVPEILTLYDQAFPDLTERFFRDRMWPDENVVERIIGPGNKLFIILYKELYYRQLYARNTRGPLLVHRYESFMNYQELFSELLSSKDPIPLSLPNVWLWDIIDEFVYQFQAFCLYKANPGKRNADEVEDLINIEENQNAWNIYPVLNILYSLLSKSQIVEQLKALKEKRNPDSVADEFGQSDLYFKLGYFALIGLLRTHVLLGDYHQALKTVQYVDIDPKGIYNTVPTCLVTLHYFVGFSHLMMRNYGEATKMFVNCLLYIQRTKSVQNQQPSKKNFQYDVIGKTWDQLFHLLAICLAIQPQRIDESIASQLSERCGERMMHMANGNIDEFRNAFATGCPKFLSPTTVVYEGVNQSKEPLLRQTQSFLEGIESQMALPVLRGYLKLYTTLPTKKLASFMDVDDEHYDSFIGKLLTYKMIVNELGKEAGPSSADDDEPQTDIDFYVDRDMINIADTKVARHVGEHFIRHIQKLQEVQDVLKRLDIQKP | not soluble
4 | MTADIRFDEKGLVPAIVQDAQSKEVLTLAYMNKESLEKTLETGETWFYSRSRQELWHKGATSGNVQRVVDIRYDCDADALLVLVEPAGPACHTGSYSCFSRSLDGAARTPAADRFAILNELEQIIAKRDAERPEGSYTTYLFEKGVDKILKKVGEEAAEVIIAAKNQNHEELKWEAADLLYHLLVLLREQKLPLDAVLATLAERHAQKVGAGDKKE | not soluble
5 | MGHHHHHHSHGLNSSRNLLIISQKSDQILNYITNGADRGATKIPVLGGHTGHSQNMIMTTLSTHEVPKVQEEIQKIDETAFIVIIPASTVMGRGFSLQKDYKSVPNDFINP | soluble
6 | MIRAVFFDFVGTLLSVEGEAKTHLKIMEEVLGDYPLNPKTLLDEYEKLTREAFSNYAGKPYRPIRDIEEEVMRKLAEKYGFKYPENFWEIHLRMHQRYGELYPEVVEVLKSLKGKYHVGMITDSDTEYLMAHLDALGIKDLFDSITTSEEAGFFKPHPRIFELALKKAGVKGEEAVYVGDNPVKDCGGSKNLGMTSILLDRKGEKREFWDKCDFIVSDLREVIKIVDELNGQ | soluble
7 | MGSDKIHHHHHHMNGSATRTVAGVSVPDTTIVARTLDYARLEYEPYLFNHVVRSWLFAVRIAQLRNIDHDAEVVAVGTLLHDVTLNERFDGPRRFEVEGADLARVFAREGGVDERRAQLIWDSVALNSTPSIGLYKEAEVALCTAGIGLDVIGFQYERIPSEEIARIVQEYPRLNMKRRMTKCFCHIAEKRPETTYDNFVRDFGERHILGYRAPSSVDLVANAPFDE | not soluble
8 | MNFDLFADEASRRWTETLAPGAVILRGHAYDDAPALLAALQTVIACAPLRNMITPGGFVMSVAMSNCGQLGWVTDEQGYRYTSHDPLSGEAWPAMPEAFSLLAKQAASEAGFADFEPDACLINRYDVGTRMSLHQDKNERDFHQPIVSVSLGLSATFLFGGMVRSDKAQRVPLTHGDVVVWGGESRLYFHGILPLKSGAVPEGMPDECRFNLTFRKAGLEHHHHHH | soluble
9 | MATLDVNPELYQAQLADKIARLKAMFVDYSMPELEVFESPVANYRMRAEFRIWHEGDDMYYIMFNQETREKYRVDQFPAASRLINDLMPLLMDAMKGSPILRHKLFQVDFLSTLSGEILVSLLYHRQLSEEWITAAQALKQRLNDEGFNLNLIGRARKMKVVLDRDYVVENLQVNGQPYVYKQVENSFTQPNAKVAEKMLEWAVDCTQESKGDLLELYCGNGNFSLALAQNFERVLATELAKPSVEAAQFNIAANQIGNVQIIRMSAEEFTQAMEGKREFNRLKDAGVDLQSYRCNTIFVDPPRSGMDIDTCKMVQGYERILYISCNPETLQENLQVLGETHQVVRFALFDQFPYTHHMEAGVMLERKK | not soluble
10 | SMRKFGVVVVGVGRAGSVRMRDLRNPHPSSAFLNLIGFVSRRELGSIDGVQQISLEDALSSQEVEVAYICSESSSHEDYIRQFLNAGKHVLVEYPMTLSLAAAQELWELAEQKGKVLHEEHVELLMEEFAFLKKEVVGKDLLKGSLLFTAGPLEEERFGFPAFSGISRLTWLVSLFGELSLVSATLEERKEDQYMKMTVCLETEKKSPLSWIEEKGPGLKRNRYLSFHFKSGSLENVPNVGVNKNIFLKDQNIFVQKLLGQFSEKELAAEKKRILHCLGLAEEIQKYCCSRK | soluble
11 | MGHHHHHHSHMATLIYVDKEIGEPGTRVAAKDVLKLESRPSIKALDGISQVLTPRFGKTYDAPSALPKATRKALGTVNRATEKSVKTNGPRKQKQPSFSAKKMTEKTVKTKSSVPASDDAYPEIEKFFPFNLLDFESFDLPEERQIAHLPLSGVPLMILDEEGELEKLFQLGPPSPVKMPSPPWECNLFAVSFKHSVDPGC | not soluble
12 | MSLANLKVNLYGMEFLNPIMTAAGPGAKDGALCQEAAKGGAGAICTKTISVLPADVPRPCMAKTNSGFLNTELWSELPKEQWIEEEYKKVKETGLPVIVSMGYSAEQIAEVAPLVKPYADAVELSTHYVGTDVAPIVNALKAAKAVLDVPVFMKMSPHTDIQTIAKAVEEAGADGLVMINSFGPCMAIDVNTGYPIMGSKAGYGWLSGAPIRPLAIRCIYEASQVVNIPIIGVGGITCGKDVAEMMMAGASAVQVCTEAILKGPSIYGKIAKELNEFLDENGYADVNEIKGLTHKKMAARGFRTHSVAPVVDEGHHHHHH | soluble
13 | MGSDKIHHHHHHSDKKNTADESEKGVSTVLPDTKNEVAVQILKKRDFHHELVSNGKISARGKADLRFETGEVIAHIYVKNGDRVQKGQKLADLDKFRLEQKLSQSEDALLKAELELKDVLIGQGYSPDDFSKVPAETMKIAKVKSGYEQSKSQYELAKREMEHATLIAPFDGVVANLFSKPYNPANTSEAFCTIIDSKGMEADFTVLENELAFIRMGDKVVITPYAGGDAFEGSVSEINPLVDANGMVKVKALVNAGGKLFSGMNVRVSVRRSLGERLVIPKSAVVLRSGKQVVFTLKDGKAMWNYVNTGLENAIECVVSDKSQKGIEDGLLEGDTVIVTGNLNLAHEAEVYVK | not soluble
14 | MGSDKIHHHHHHMFLNLIATAGNDRIRDFLVNDWYRSLKENVDLSKTDVLVINYGLTGLPKEVINFPAVERSGLINNTRFINLAIFLENHPEYDQILFCDGGDIIFQSDISHLFEEHRDAFRAVVEQLSPPIDLVVKEEDLVNGKEIKSFLSNKKLFNVGVIIAPREGFLELARTMERRLKNINVWGGDTVIGNYVIYKNPHVELPSKYNFIPSTAREKFYVKDSKFYLENGELIPIVHNAGRYRFLRPVKDFGYGPGKNRVNKFNIWMFRMLFSVSNFLKMK | not soluble
15 | MNRCILLALLPLISAIPVAVNIDDQDAVNLGAYDRARFDLVESFHPLQPASAVTNDQIAEVRAKAAGVRQNEASISIDLPTQMLSGSSGRIPERLAFGEWTEWTSWSMCQNGERSRVRTCVSRKPALRVVCHGDAIEIEKCYVDAGEGHIPVAADPWSIEREISGDFA | not soluble
16 | AERGELDLTGAKQNTGVWLVKVPKYLSQQWAKASGRGEVGKLRIAKTQGRTEVSFTLNEDLANIHDIGGKPASVSAPREHPFVLQSVGGQTLTVFTESSSDKLSLEGIVVQRAECRPA | soluble
17 | MSLSPAPTTMDFTPAPLEDTSSRPQFCKWPCECPPSPPRCPLGVSLITDGCECCKMCAQQLGDNCTEAAICDPHRGLYCDYSGDRPRYAIGVCAQVVGVGCVLDGVRYNNGQSFQPNCKYNCTCIDGAVGCTPLCLRVRPPRLWCPHPRRVSIPGHCCEQWVCEDDAKRPRKTAPRDTGAFDAVGEVEAWHRNCIAYTSPWSPCSTSCGLGVSTRISNVNAQCWPEQESRLCNLRPCDVDIHTLIKAGKKCLAVYQPEASMNFTLAGCISTRSYQPKYCGVCMDNRCCIPYKSKTIDVSFQCPDGLGFSRQVLWINACFCNLSCRNPNDIFADLESYPDFSEIANEGHHHHHH | not soluble
18 | MSLKKLVIFDLDGTLLNTIADLAHSTNYALNKLGYPTHEIEKYNFMVGNGIDKLFERALPEGEKSKENVLRVRKEFVPYYDIHNADDSRPYPGIPELLSYLQDAGIQITVASNKYQAATQKLIDHYFPEIHFTAVFGQREGIKVKPDPTVVFDILEVAKVTKEEVLYVGDSGVDMQTAANAGVTVCGVTWGFRPRAELEEFSPQYIVDTAEEIKRLILEGHHHHHH | soluble
19 | NVYDLANELERAVRALPEYQAVLTAKSAIESDADAQVLWQDFLATQSKVQEMMQSGQMPSQEEQDEMSKLGEKIESNDLLKVYFDQQQRLSVYMSDIEKIVFAPMQDL | soluble
20 | SLDLFISRHLEQLNSLSFKATPLFEHKAQFYAAPSYLEKYGTPQNVEELTKHNILIWGEKPAREIKTNRGKRMSLSGNFATTNPEALFHGAKRGMGILMTNNVMIKDDLKSGALVPILPDVTADEATVYAYYPKLDYQHTRTQLFLDYLKSRLEEEKRI | not soluble
21 | MGSDKIHHHHHHADNAPAKVQTALKKMYPKADGIAWSQDGGYYCADFMMNGYEKNVWFNAQGQWQMTQTEWGDTDELSATVYNAYASGPYSGWQVEDVTYVEFPKWQPIIVIKVGQQNVDIQYQLFYSPNGTLLRTRNVSYMGDILGPGTFL | not soluble
22 | MGSDKIHHHHHHMDNKKPKIITIASIKGGVGKSTSAIIMATLLAKEHKVLLIDMDTQASTTSYFYKEILNQNIDIVKINVYRVLKEKIDINDSIVKIKENLDLIPSYLTLNKFLSESIPLKELRLQNNLEFLKRRYHYVIIDTNPSLDYTLSNALMTSNCIIVPMTAEKWAVESLELLEFHMNNLKIKIPIFLVITRFKKNNTHKQLLQHVESKTGFLGFIHEREDLNKKIAKNEEFDMTKDYINEYKGVLSRFLIVYDEYVK | not soluble
23 | MTRRPDRKDVATVDELHASATKLVGLDDFGTDDDNYREALGVLLDAYQGEAGLTVLGSKMNRFFLRGALVARLLSQSAWKQYPEHVDVAIKRPIFVTGLVRTGTTALHRLLGADPAHQGLHMWLAEYPQPRPPRETWESNPLYRQLDADFTQHHAENPGYTGLHFMAAYELEECWQLLRQSLHSVSYEALAHVPSYADWLSRQDWTPSYCRHRRNLQLIGLNDAEKRWVLKNPSHLFALDALMATYPDALVVQTHRPVETIMASMCSLAQHTTEGWSTKFVGAQIGADAMDTWSRGLERFNAARAKYDSAQFYDVDYHDLIADPLGTVADIYRHFGLTLSDEARQAMTTVHAESQSGARAPKHSYSLADYGLTVEMVKERFAGL | soluble
24 | MSLAKLPVGGIWKARLVLNEMQWSPYIKVATFSADITLDVTDKNNGAIYLPAFGSATPRVDLNLRTQPLSTAPGGEVSGQANIDMCLYDGYNSNSPWLKVALSDLQTVAGRPADVFSLRRDGSSGTAAADRVDYRITLNYNNQPQTVNNGQDITLASVNSTLIRPVVMPGIAFPVICTPTPLTLNVLPFAKLSKAAGHFSGTLRVTLSADALAEGHHHHHH | not soluble
